The target in this experiment is cytochrome c oxidase from Aquifex aeolicus (AaCcO), protomer of subunits CoxA2, CoxB2 and IIa (Aquifex aeolicus) (UniProt O67937). Nature of the experiment: cryo-EM structure; single-particle cryo-EM with 3D classification (RELION) of the sample purified from native A. aeolicus membranes by anion exchange and size-exclusion chromatography; fractions with a dominant band around 242 kDa in Blue Native PAGE; two classes of particles (dimeric complex III, dimeric AaCcO); AaCcO dimer at 3.4 Å. In general terms: SEC sorts molecules by how far they enter the pores of the column.

As usually defined, the stoichiometry N is a count of units in the complex or per binding partner. Regarding “cytochrome c oxidase from Aquifex aeolicus (AaCcO), protomer of subunits CoxA2, CoxB2 and IIa (from UniProt O67937 1-592) (complex)”, the stoichiometry N came out at 2.

Values taken from article PMC8251803.
